Tests used:
Assay type in all cases: biochemical
[1] = biological target: T1, purified human fibrinogen (Homo sapiens, UniProt P02675+P02679); test: Polymerisation (clotting) of purified fibrinogen, Sigma Amelung KC4 Delta coagulation analyser
T1 sequence (P02679 27-433 limits assumed): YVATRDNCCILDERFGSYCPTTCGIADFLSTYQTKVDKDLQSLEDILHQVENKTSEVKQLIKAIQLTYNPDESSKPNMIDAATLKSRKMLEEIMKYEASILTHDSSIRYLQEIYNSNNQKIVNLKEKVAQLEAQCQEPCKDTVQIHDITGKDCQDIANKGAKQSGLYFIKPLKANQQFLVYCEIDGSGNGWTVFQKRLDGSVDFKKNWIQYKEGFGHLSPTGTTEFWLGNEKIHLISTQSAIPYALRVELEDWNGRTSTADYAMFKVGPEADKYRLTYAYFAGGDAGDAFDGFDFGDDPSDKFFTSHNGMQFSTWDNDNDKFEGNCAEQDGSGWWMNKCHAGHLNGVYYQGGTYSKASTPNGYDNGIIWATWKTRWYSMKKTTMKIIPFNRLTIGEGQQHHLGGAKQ
T1 sequence (P02675 31-491): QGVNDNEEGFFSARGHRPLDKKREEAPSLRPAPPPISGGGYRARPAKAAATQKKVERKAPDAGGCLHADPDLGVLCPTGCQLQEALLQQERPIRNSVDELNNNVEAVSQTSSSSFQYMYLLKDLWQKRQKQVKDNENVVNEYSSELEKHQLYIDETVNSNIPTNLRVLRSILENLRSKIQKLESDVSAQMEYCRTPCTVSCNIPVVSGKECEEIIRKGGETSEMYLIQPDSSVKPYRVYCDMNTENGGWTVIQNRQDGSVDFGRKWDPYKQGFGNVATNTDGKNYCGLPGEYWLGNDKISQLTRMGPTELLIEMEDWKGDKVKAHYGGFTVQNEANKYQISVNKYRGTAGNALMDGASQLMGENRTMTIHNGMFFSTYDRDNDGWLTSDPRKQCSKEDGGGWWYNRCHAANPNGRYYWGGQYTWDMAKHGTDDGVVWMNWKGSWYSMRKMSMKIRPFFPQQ
T1 sequence (P02671 20-629 partner limits assumed): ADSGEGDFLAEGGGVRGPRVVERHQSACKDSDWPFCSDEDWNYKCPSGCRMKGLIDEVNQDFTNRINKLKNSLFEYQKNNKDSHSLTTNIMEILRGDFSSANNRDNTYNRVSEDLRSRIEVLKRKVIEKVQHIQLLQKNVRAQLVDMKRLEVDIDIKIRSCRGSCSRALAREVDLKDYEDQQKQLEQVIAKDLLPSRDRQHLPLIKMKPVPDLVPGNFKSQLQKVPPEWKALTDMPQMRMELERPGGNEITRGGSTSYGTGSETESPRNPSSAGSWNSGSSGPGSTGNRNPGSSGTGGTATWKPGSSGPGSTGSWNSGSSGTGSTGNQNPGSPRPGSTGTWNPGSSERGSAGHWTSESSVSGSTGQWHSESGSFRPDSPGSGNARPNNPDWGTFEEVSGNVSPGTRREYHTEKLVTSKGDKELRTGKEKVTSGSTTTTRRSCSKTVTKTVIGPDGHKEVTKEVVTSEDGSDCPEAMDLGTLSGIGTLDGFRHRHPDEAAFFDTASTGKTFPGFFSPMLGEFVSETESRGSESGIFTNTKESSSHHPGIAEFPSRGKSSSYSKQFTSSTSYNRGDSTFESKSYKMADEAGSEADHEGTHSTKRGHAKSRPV
Procedure: The ability of Peptide Dendrimer No. 12 to polymerise fibrinogen was assessed. 30 μl of dendrimer in solution, at concentration ranging from 0.005-2 mg/ml, was added to 100 μl purified human fibrinogen at 3 mg/ml (the level of fibrinogen found in the blood). Polymerisation of fibrinogen was analysed using a Sigma Amelung KC4 Delta coagulation analyser.
The concentration of each dendrimer was varied from 0.005-0.5 mg/ml.

[2] = biological target: T2, fibrinogen in human plasma (Homo sapiens, UniProt P02675+P02679); test: Polymerisation of fibrinogen in human plasma, KC4 Delta coagulation analyzer; details: dendrimer 0.25 mg/ml, 30 μL to 100 μL human plasma, 37° C.
T2 construct: from tissue; host or cells: human plasma
T2 sequence (P02679 27-433 limits assumed): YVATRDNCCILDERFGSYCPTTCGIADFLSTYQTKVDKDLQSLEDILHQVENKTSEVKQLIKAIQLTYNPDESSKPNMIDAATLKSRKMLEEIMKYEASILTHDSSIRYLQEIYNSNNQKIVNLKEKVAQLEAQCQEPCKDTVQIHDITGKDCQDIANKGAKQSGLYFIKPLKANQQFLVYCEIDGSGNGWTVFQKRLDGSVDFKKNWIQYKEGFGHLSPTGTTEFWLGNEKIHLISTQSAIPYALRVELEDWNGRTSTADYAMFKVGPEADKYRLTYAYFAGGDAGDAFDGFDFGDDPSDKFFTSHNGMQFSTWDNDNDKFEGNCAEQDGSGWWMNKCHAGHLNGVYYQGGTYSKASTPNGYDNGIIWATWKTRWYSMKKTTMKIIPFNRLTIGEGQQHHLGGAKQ
T2 sequence (P02675 31-491): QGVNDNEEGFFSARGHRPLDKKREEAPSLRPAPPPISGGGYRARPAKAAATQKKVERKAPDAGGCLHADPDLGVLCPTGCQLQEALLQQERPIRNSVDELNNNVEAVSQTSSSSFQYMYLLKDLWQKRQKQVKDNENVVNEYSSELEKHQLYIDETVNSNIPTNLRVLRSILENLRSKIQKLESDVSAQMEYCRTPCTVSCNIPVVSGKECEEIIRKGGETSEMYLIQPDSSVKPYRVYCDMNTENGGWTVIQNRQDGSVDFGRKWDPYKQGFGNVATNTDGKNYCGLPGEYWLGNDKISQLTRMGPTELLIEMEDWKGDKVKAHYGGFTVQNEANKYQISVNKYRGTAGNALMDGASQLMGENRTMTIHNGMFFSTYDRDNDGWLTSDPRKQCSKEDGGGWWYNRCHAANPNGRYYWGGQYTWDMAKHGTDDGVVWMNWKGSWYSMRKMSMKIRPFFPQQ
T2 sequence (P02671 20-629 partner limits assumed): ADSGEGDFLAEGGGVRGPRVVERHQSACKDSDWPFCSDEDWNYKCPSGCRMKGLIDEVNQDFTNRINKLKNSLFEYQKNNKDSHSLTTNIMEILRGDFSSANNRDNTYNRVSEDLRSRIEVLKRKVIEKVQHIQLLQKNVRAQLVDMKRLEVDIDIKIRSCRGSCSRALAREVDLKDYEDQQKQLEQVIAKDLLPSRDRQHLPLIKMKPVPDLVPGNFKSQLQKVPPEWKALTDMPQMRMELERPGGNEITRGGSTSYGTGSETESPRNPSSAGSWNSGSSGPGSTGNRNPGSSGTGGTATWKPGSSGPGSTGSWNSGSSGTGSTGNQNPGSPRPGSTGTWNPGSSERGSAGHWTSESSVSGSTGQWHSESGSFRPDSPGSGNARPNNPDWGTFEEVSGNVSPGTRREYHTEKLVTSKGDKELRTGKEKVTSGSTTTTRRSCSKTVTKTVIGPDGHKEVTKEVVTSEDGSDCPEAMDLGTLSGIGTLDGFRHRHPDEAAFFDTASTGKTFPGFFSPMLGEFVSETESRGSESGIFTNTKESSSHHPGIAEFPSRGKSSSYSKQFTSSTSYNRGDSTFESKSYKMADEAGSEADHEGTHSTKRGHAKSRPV
Procedure: 30 μL of each dendrimer (at a concentration of 0.25 mg/ml) was added to 100 μL human plasma at 37° C., and polymerisation of fibrinogen was determined using a Sigma Amelung KC4 Delta coagulation analyzer.

human fibrinogen = biological target: T3, human fibrinogen (Homo sapiens, UniProt P02675+P02679); test: Clotting activity of dendrimers extracted from gelatin paste after gamma irradiation and storage; details: fibrinogen 3 mg/ml, 37° C.
T3 sequence (P02679 27-433 limits assumed): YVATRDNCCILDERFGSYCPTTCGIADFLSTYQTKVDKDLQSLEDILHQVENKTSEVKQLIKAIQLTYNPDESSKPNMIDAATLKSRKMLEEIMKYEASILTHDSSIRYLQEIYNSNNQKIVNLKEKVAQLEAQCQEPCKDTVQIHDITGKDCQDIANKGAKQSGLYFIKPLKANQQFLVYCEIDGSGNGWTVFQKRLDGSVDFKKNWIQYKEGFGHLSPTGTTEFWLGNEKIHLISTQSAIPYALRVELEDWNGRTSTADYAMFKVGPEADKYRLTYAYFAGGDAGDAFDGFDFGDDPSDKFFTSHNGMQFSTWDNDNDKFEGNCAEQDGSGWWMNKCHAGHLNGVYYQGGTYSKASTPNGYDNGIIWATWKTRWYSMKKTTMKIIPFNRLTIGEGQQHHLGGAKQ
T3 sequence (P02675 31-491): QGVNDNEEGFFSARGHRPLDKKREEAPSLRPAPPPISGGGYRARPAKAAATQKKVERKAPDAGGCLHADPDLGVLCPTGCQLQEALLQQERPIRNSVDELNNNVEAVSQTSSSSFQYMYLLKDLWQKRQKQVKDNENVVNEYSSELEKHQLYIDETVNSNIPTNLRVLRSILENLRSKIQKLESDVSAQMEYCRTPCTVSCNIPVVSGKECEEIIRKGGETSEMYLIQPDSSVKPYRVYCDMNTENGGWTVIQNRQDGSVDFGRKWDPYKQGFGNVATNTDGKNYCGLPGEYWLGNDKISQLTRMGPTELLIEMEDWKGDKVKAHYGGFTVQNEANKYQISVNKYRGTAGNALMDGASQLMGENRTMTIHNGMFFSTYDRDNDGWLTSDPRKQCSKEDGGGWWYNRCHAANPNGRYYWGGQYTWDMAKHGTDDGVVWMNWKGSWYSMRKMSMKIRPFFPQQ
T3 sequence (P02671 20-629 partner limits assumed): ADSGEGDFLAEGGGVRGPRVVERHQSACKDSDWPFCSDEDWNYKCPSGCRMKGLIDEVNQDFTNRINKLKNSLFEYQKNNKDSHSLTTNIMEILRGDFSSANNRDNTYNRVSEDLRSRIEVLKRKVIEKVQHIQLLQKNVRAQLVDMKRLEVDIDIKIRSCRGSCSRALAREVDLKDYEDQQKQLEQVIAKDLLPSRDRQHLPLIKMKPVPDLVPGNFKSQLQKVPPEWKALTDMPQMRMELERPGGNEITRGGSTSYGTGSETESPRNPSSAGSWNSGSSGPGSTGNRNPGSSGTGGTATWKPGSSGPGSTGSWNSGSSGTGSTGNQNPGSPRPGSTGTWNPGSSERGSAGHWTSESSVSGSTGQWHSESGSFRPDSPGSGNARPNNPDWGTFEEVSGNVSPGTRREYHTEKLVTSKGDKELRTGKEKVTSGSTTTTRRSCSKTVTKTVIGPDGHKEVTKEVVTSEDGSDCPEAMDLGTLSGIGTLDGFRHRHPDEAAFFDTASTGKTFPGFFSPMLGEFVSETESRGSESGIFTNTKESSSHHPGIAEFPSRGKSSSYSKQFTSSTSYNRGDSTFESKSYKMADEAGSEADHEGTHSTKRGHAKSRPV
Procedure: 2 ml of solution of Peptide Dendrimer No. 12 or 13 was mixed with SURGIFLO Haemostatic Matrix (a hydrated flowable gelatin matrix) to form a paste of each peptide. Each paste was sterilised by irradiation with ^60Co gamma rays at a dose of 30 kGy, and then stored at room temperature. Samples of the sterilised pastes were used for testing after storage for two and four weeks.
After storage, peptide dendrimers were extracted from each paste using […] HEPES buffer. 30 μL of each extract (with a peptide concentration of about 0.25 mg/ml) was added to 100 μL of human fibrinogen at 3 mg/ml, and the ability of each dendrimer to polymerise fibrinogen (the ‘clotting’ activity) at 37° C. was determined using a Sigma Amelung KC4 Delta coagulation analyser. The polymerisation activity of non-irradiated control samples was also determined.

**Q.** “Peptide Dendrimer No. 12 (peptide GPRPG; chain KKKKK)” was tested. Which “copolymerisation with fibrinogen (clotting time)” value ([1]; dendrimer 0.005-2 mg/ml, fibrinogen 3 mg/ml) did it give?
**A.** able to copolymerise with fibrinogen almost instantaneously, even at very low concentrations

**Q.** What about the “clotting time at high dendrimer concentration” value ([1]; dendrimer concentrations above 0.5 mg/ml, fibrinogen 3 mg/ml) of the same substance?
**A.** increase in clotting time

**Q.** And the clotting ([1]; dendrimer range ~0.02-0.5 mg/ml)?
**A.** almost instantaneous clotting

**Q.** And the “ability to polymerise fibrinogen in human plasma” value [2]?
**A.** able to polymerise fibrinogen in human plasma

**Q.** What about the “clotting time in human plasma” value [2] of the same substance?
**A.** less than one

**Q.** What about the “Clotting activity, Non-irradiated control” value (human fibrinogen; extract from SURGIFLO paste, about 0.25 mg/ml peptide, not irradiated) of the same substance?
**A.** 1 s

**Q.** And the “Clotting activity, Storage for 2 weeks post irradiation” value (human fibrinogen; paste irradiated 30 kGy 60Co gamma, stored 2 weeks at room temperature, about 0.25 mg/ml)?
**A.** 1 s

**Q.** And the “Clotting activity, Storage for 4 weeks post irradiation” value (human fibrinogen; paste irradiated 30 kGy 60Co gamma, stored 4 weeks at room temperature, about 0.25 mg/ml)?
**A.** 1 s

Source: patent publication US20180140739A1, “HAEMOSTATIC DEVICE” (HAEMOSTATIX LIMITED, priority 2015, published 2018)
